Laboratory results as given in the supplement of paper PMC9170038.

System: MS2 coat protein
Assay: apparent KD of MS2 coat protein; higher = weaker reporter binding
Details: Eterna round: R107
Procedure, shortened: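 Designed RNA switches were transcribed on-chip from Illumina sequencing clusters and titrated with SNAP-549-labelled MS2 coat protein in twofold steps from 0.7 or 1.5 nM up to 3 µM. Each step lasted 0.8–1.5 h at first and 10–20 min by the end, in 100 mM Tris-HCl pH 7.5, 80 mM KCl and 4 mM MgCl2, without or with constant ligand. Apparent KD is the median, for each design, of fits to normalised cluster binding curves.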

[1] = input ligand: theophylline 20 uM
[2] = input ligand: theophylline 2 mM
[3] = input ligand: tryptophan 2.4 mM

Sequence	apparent KD of MS2 coat protein (input ligand: arginine 13.2 mM) [nM]	apparent KD of MS2 coat protein (input ligand: none) [nM]	apparent KD of MS2 coat protein [1] [nM]	apparent KD of MS2 coat protein [2] [nM]	apparent KD of MS2 coat protein [3] [nM]
AGCGGAACGGAAGGGUCCCAAAAUUGUGAUACCAGCCUUGAAUCCGGCCCUUGGCAGCACAUGAGGAUCACCCAUGUACUGCGGU [Celate]	11.1	11	24.6	123	14.4
AGCGGCUCGAAAGAGUCGCACUCAUGUGAAGGAGCGCCCGUUAGGGCAGGUAGGUCGCACAUGAGGAUCACCCAUGUACCUUCUA [MAT - Exclusion Arginine A - Mod of Eli - D19]	53.1	196	282	312	140
AGCGUAUAGACGGAUACCAGCGCCAAUUAACAUGAGGAUCACCCAUGUAGUGUGGGUGGACGCCCUUGGCAGCCGAGUAUAGGUA [Exclusion - Theophylline B / A]	57.3		274		250
AGCGUUCAGCUUAUACUGGACAAUGGGUGACGAGGACCGGUACGGCCGCCACUCGGGCGCCCGGUUACAUGAGGAUCACCCAUGU [Vedizaus]	52.2	195	213	212	20.5
AGCUCGCUUCCUCAAGCGUCAAAGACGCGUCGAGGACCGGUACGGCCGCCACUCGACCUGAGGAUCACCCGGGUCUAAGCGAGCA [TrypAX 8 #SwitchBubble #AlternativeMS2 #MS2Late #CuTurnoff]	45.8	115	136	177	325
AGGACUUGCGUUCAAAAUCCCAUGUUGGAAGGAGCGCAUAUAGUUGCAGGUAGGUCGCCGACAUGAGGAUCACCCAUGUCUUUUC [Zasorequer]	36	40.3	43.8	40.5	35.2
AGUACUCGAACGGAUACCAGCCGGACAUGAGGAUCACCCAUGUCCUACCAAUGUUCGGUUGGCCCUUGGCAGCCGUUCGUGUACA [Omei Theo B SS A v5]	99.5		404		599
AGUAGUUGACAAAAGUCAGCUACAACUGAAGGAGCGGGUGGGUGCCCAGGUAGGUCGCGGAAACAUGAGGAUCACCCAUGUAUAA [ArgAS 1 #BothOrNeither #OpenEnded]	37.3	13.1	19.4	21.7	21.7
AGUCUUAUAGGAAGGAGCGCAUACUUCACAUGAGGAUCACCCAUGUCAAGACGUGAGUCAAUGCAGGUAGGUCGCCUAACUAAGA [Same State - Arginine B (Freestyle 12)]	18	18.8	20.4	17.7	14.6
AGUCUUAUAGGAAGGAGCGCAUACUUCACAUGAGGAUCACCCAUGUCAAGGAGUGAGUCAAUGCAGGUAGGUCGCCUAACUAAGA [Same State - Arginine B (Freestyle 10)]	38.6	108	112	139	88.3
AGUCUUGAACGAAGGAGCGACGUACAUGAGGAUCACCCAUGUGGGAGCGAAAGCUCCCAACGUCAGGUAGGUCGCGUUCGAGACA [SS-ArgB29]	16.9	17.7	24.7	20.4	18.5
AGUCUUGAACGAAGGAGCGACGUACAUGAGGAUCACCCAUGUGUAGGAGCGAAAGCUCCACGUCAGGUAGGUCGCGUUCGAGACA [Omei Arginine B SS A v4]	12.1	11.7	14.4	12.5	13.9
AGUGUCGGAGCGGCCGCCACUAGCACAUCUGGUCGCCAUGGCAACAUGAGGAUCACCCAUGUUGCUAGGACCGGGCUCAAUAUUU [Maengele]	8.37		10.9	8.8	
AGUUUAGACACGGCCGCCACUCGUGACAGAUUUAGCAGUGGUCAACAUGAGGAUCACCCAUGUCUGAGGACCGGGUGUUGAGUUU [XTryp B #6]	78.9		176	217	
AUAAAUAAUAAAUAAAAUAAAAUGGGUGAACGAGGACCGGUACGGCCGCCACUCGGACAUGAGGAUCACCCAUGUCCAUGUGAAA [#21 Exclusion Tryptophan A]	15.6		20.3	22.7	
AUAACAUGAGGAUCACCCAUGUAAGCUGAAGGAGCGCUGGAAACAGCAGGUAGGUCGCAGCAUGUUUCCAAUCCUCAUGGAAACA [(M1)-(M2)-(Arg1)-(Arg2)-(A)'-(M)'-(A)''_Design9]	53.4	152	159	136	105
AUAACGAGUGGUGGAAUACAUGGGUGAUAACGAGGACCGGUACGGCCGCCACUCGAUAACAUGAGGAUCACCCAUGUAAUAAUAA [|T'-M'-Trp-Ms2|_Design18]	57.3		160	139	
AUAACUGUAAUAAACCGCAGGCUAGUGGAAGGAGCGCGGAAUAACGCAGGUAGGUCGCCACAAACUUGAGGAUCACCCAGGUGGC [SSAA NP+V+V2 #7 Diff Apt]	38.1	49	78.8	57.7	48.6
AUAAGCUGUACCGGAAUAUCCUCAUGUAUACGAGGACCGGUACGGCCGCCACUCGAUAACAUGAGGAUCACCCAUGUAAUAAUAA [|T'-M'-Trp-Ms2|_Design20]	14.2		15.4	14.5	

Sequence	apparent KD of MS2 coat protein (input ligand: arginine 13.2 mM) [nM]	apparent KD of MS2 coat protein (input ligand: none) [nM]	apparent KD of MS2 coat protein [1] [nM]	apparent KD of MS2 coat protein [2] [nM]	apparent KD of MS2 coat protein [3] [nM]
AUAAGUAAUGUUUCGUGUAUUAUUACAGAUACCAGACUAUCCUAUGUCCCUUGGCAGCUGGAUUACAUGAGGAUCACCCAUGUUG [JR_ExcTheophyA_Sub001]	15.7		20.3		17.1
AUAAGUAAUGUUUCGUGUUUUAUUACAGAUACCAGACUAUACGUUGUCCCUUGGCAGCUGGAUUACAUGAGGAUCACCCAUGUUG [JR_ExcTheophyA_Sub003]	17.6		26.5		18.5
AUAAUAAUCCUCAUGUAAGGUCCUCGAUAACGAGGACCGGUACGGCCGCCACUCGAACAUGAGGAUCACCCAUGUACGAGGACCA [M' - T' - T - MS2 - T'' Design 1]	19.6		37	38.2	
AUAAUAGGGAUAAUUAGUUUUAGGUCCAGUCGAGGACCGGUACGGCCGCCACUCGUACAGAAAUACAUGAGGAUCACCCAUGUUA [JR_SSTryptoA_Sub005]	14	13.6	21.5	15.1	16.1
AUACAUGAGGAUCACCCAUGUAUAGAUGAAGGAGCGACCAGAGGGUCAGGUAGGUCGCAUCACAUGAGGAUCACCCAUGUAUCGA [DOUBLE!!! :-D #8]	33.6	56.8	53	67.2	47.1
AUACAUGAGGAUCACCCAUGUCCUCGUGAUCGAGGACCGGUACGGCCGCCACUCGGUCCUCGCGAGGAGGAGUCAAAGACUCCUA [Omei Trp A SS A v6]	97.2		230	240	
AUACAUGAGGAUCACCCAUGUCCUCGUGAUCGAGGACCGGUACGGCCGCCACUCGGUCCUCGCGAGGUGGAGUCAAAGACUCCAA [Omei Trp A SS A v5]	109		166	137	
AUACAUGAGGAUCACCCAUGUUAUAGUGAAGGAGCGACAUUUAUGUCAGGUAGGUCGCACUAAAGUUUAAUAAUUCUUUGAUCUU [JR_SSArginiA_Sub011]	18.6	15.7	24.9	15.6	18.6
AUACAUGAGUGUUUGAUUAUAGAAACUGAAGGAGCGUGGUAGUACACAGGUAGGUCGCAGUAAAUACAUGAGGAUCACCCAUGUU [JR_Nu_SSArginiA_Sub026]	29.2	32.9	36.5	36.5	38.4
AUACCUAAUGUUACGUUUUCCUUUUCAGAUACCAGACUUUACGUUGUCCCUUGGCAGCUGUAUUACAUGAGGAUCACCCAUGUUG [JR_SSTheophyA_Sub008]	19.8		26.7		20.4
AUACGGAACAGAAGGAGCGCACCGACAUGAGGAUCACCCAUGUGGGAUGGGACUCUUUUGGUGCAGGUAGGUCGCUGUCACGCAU [Maistile]	129	35	51.9	44	35.5
AUAGUUAUCAGAAGGAGCGUCAUUAACAUGAGGAUCACCCAUGUAACAUUGAAUUCGAUGAGACAGGUAGGUCGCUGAAUAUUAA [SS-ArgB28]	32.3	39.6	48	41.7	36
AUAUAUACAUGAGGAUCACCCAUGUUAUUUCGAGGACCGGUACGGCCGCCACUCGAUAGAGUAGAAGUAACAUUUGUUAGAUGAU [JR_SSTryptoA_Sub012]	23.9		25.2	24.4	
AUAUUUAACGGAAGGAGCGGGAAAUAAUCAUGAUGACAUGAGGAUCACCCAUGUCUUAAAACCCAGGUAGGUCGCCGAAUAAUAA [Same State - Arginine B]	12.1	11.1	14.5	13	11.7
AUCAUAAUAGACUCGUUUGAUUAUAUGGAACGAGGACCGGUACGGCCGCCACUCGUGAUUUACAUGAGGAUCACCCAUGUUAGCA [JR_ExcTryptoA_Sub005]	17		23.5	19.4	
AUCCACAGCCGAAGGAGCGCUAGAAGAUGACAUGAGGAUCACCCAUGUGUGUGAUGUGGCUAGCAGGUAGGUCGCGGAGUGGAUU [Exclusion - Arginine B (Freestyle 12)]	31.6	24.3	35.5	26.2	24.7
AUCCAGAGCCGAAGGAGCGCUAGAAGAUGACAUGAGGAUCACCCAUGUGUGUGAUGUGGCUAGCAGGUAGGUCGCGGACUGGAUU [Exclusion - Arginine B (Freestyle 13)]	20.1	22.4	28.1	33.5	18.7
AUCGGCCAGGGAAGGAGCGUGAAGACAUGAGGAUCACCCAUGUAGAGGCGCCGAAGGCGUUCGCAGGUAGGUCGCCCUGGCUGAU [#1 Same State - Arginine B Attempt #27 (HarryS)]	14.7	14.7	23.8	17.7	15.8
AUCGGGCCUUUAGAACCGCCGUUCCCACCUCGAGGACCGGUACGGCCGCCACUCGGGUGACAUGAGGAUCACCCAUGUGGACGAA [Gexebidive]	31	181	432	737	284
